Columns and labels:
[1] = target: F2634 (artificial (human zinc finger domains)); test: cell_activity; endogenous VEGF-A conc., unit not given; parental vector 400; conditions: tags: HA, NLS, p65
[2] = target: F109-KRAB (artificial (human zinc finger domains)); test: cell_activity; luciferase reporter with native VEGF promoter -950 to +450, 293 cells, 30 ng plasmid; conditions: tags: HA, NLS
Experimental: (§1) Human embryonic kidney 293 cells were maintained in Dulbecco's modified Eagle medium (DMEM) supplemented with 100 units/ml penicillin, 100 μg/ml streptomycin, and 10% fetal bovine serum (FBS). For the luciferase assay, 10⁴ cells/well were pre-cultured in a 96-well plate. Using a LIPOFECTAMINE™ transfection kit (Life Technologies, Rockville, Md.), 293 cells were transfected with 25 ng of a reporter plasmid in which the native VEGF-A promoter was fused to the luciferase gene in pGL3-basic (Promega), and 25 ng of a plasmid encoding a zinc finger protein. After 48 h of incubation, luciferase activity was measured with a DUAL LUCIFERASE™ assay kit (Promega) using a TD-20/20 luminometer (Turner Designs Inc., Sunnyvale, Calif.).
(§2) 293 cells were transfected with luciferase reporter plasmid pGL3-VEGFprom containing native human VEGF promoter(−950 to +450 from the transcription initiation site) and 30 ng of pLFD-F121-KRAB or pLFD-F109-KRAB. Luciferase activity was measured as described. Fold repression values were calculated by normalizing the firefly luciferase activity against the renilla luciferase activity and the result was compared with that of the control wherein 293 cells were transfected with the control vector pLFD and the reporter plasmid.

[3] = target: F2646 (artificial (human zinc finger domains)); test: cell_activity; endogenous VEGF-A conc., unit not given; parental vector 400; conditions: tags: HA, NLS, p65
Chain of F2646 (artificial (human zinc finger domains)) (chain, as listed by the source): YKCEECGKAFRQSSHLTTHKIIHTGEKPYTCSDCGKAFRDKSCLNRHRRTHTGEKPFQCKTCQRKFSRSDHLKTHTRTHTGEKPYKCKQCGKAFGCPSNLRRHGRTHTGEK

[4] = target: F2633 (artificial (human zinc finger domains)); test: as above; conditions: tags: HA, NLS, p65
Chain of F2633 (artificial (human zinc finger domains)) (chain, as listed by the source): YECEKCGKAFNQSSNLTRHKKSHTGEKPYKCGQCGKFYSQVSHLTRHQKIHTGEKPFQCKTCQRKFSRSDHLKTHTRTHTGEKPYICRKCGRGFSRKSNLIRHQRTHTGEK

[5] = target: F2638 (artificial (human zinc finger domains)); test: as above; conditions: tags: HA, NLS, p65
Chain of F2638 (artificial (human zinc finger domains)) (chain, as listed by the source): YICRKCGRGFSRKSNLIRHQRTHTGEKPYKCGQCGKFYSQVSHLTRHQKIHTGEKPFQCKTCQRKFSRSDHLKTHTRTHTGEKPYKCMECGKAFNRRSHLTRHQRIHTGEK

[6] = target: F2615 (artificial (human zinc finger domains)); test: as above; conditions: tags: HA, NLS, p65
Chain of F2615 (artificial (human zinc finger domains)) (chain, as listed by the source): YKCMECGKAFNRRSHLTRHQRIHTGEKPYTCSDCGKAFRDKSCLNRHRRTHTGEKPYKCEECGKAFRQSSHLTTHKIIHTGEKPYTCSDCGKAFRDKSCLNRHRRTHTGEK

[7] = target: F480 (artificial (human zinc finger domains)); test: as above
Chain of F480 (artificial (human zinc finger domains)) (chain, as listed by the source): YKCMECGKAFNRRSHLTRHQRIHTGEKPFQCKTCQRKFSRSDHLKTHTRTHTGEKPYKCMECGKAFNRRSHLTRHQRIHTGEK

[8] = target: F2610 (artificial (human zinc finger domains)); test: as above; conditions: tags: HA, NLS, p65
Chain of F2610 (artificial (human zinc finger domains)) (chain, as listed by the source): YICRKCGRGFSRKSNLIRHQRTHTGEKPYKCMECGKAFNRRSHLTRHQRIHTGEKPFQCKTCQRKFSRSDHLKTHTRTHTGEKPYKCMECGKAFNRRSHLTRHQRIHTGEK

[9] = target: F475 (artificial (human zinc finger domains)); test: as above
Chain of F475 (artificial (human zinc finger domains)) (chain, as listed by the source): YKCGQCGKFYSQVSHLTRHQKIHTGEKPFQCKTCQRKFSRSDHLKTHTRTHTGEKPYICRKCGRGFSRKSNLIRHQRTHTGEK

[10] = target: F2679 (artificial (human zinc finger domains)); test: cell_activity; endogenous VEGF-A conc., unit inferred; parental vector 400; conditions: tags: HA, NLS, p65
Chain of F2679 (artificial (human zinc finger domains)) (chain, as listed by the source): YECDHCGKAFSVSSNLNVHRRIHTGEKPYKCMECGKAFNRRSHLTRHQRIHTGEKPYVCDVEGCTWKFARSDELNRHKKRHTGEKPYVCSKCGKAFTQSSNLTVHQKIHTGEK

[11] = target: F2644 (artificial (human zinc finger domains)); test: cell_activity; endogenous VEGF-A conc., unit not given; parental vector 400; conditions: tags: HA, NLS, p65
Chain of F2644 (artificial (human zinc finger domains)) (chain, as listed by the source): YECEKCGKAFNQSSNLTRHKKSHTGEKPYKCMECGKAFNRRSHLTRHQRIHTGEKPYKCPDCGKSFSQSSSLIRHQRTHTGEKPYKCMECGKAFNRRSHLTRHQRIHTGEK

[12] = target: F2612 (artificial (human zinc finger domains)); test: cell_activity; endogenous VEGF-A conc., unit inferred; parental vector 400; conditions: tags: HA, NLS, p65
Chain of F2612 (artificial (human zinc finger domains)) (chain, as listed by the source): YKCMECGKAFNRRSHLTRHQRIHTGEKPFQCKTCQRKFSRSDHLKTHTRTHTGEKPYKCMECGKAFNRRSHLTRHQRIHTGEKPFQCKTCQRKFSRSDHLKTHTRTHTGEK

[13] = target: F121 (artificial (human zinc finger domains)); test: as above
Chain of F121 (artificial (human zinc finger domains)) (chain, as listed by the source): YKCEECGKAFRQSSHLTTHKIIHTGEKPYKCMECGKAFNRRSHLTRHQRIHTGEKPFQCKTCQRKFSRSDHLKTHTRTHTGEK

[14] = target: F121-KRAB (artificial (human zinc finger domains)); test: cell_activity; luciferase reporter with native VEGF promoter -950 to +450, 293 cells, 30 ng plasmid; conditions: tags: HA, NLS
Experimental: as §1, §2

[15] = target: F2650 (artificial (human zinc finger domains)); test: cell_activity; endogenous VEGF-A conc., unit not given; parental vector 400; conditions: tags: HA, NLS, p65
Chain of F2650 (artificial (human zinc finger domains)) (chain, as listed by the source): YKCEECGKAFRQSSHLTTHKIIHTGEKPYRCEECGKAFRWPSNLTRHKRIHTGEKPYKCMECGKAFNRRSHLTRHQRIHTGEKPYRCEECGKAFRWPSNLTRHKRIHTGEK

[16] = target: F2605 (artificial (human zinc finger domains)); test: as above; conditions: tags: HA, NLS, p65
Chain of F2605 (artificial (human zinc finger domains)) (chain, as listed by the source): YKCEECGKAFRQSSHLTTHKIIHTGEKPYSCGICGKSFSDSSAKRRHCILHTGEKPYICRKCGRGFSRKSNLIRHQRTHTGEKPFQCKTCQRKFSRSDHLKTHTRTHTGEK

[17] = target: F2604 (artificial (human zinc finger domains)); test: as above; conditions: tags: HA, NLS, p65
Chain of F2604 (artificial (human zinc finger domains)) (chain, as listed by the source): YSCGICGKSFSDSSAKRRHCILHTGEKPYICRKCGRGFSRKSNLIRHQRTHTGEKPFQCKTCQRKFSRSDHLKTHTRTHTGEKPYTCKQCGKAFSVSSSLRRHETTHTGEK

[18] = target: F2607 (artificial (human zinc finger domains)); test: cell_activity; endogenous VEGF-A conc., unit inferred; parental vector 400; conditions: tags: HA, NLS, p65
Chain of F2607 (artificial (human zinc finger domains)) (chain, as listed by the source): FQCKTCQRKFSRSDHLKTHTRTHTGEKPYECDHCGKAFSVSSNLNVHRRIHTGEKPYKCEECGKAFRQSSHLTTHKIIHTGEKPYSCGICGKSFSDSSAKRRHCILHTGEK

Chain of F109-KRAB (artificial (human zinc finger domains)) (chain, as listed by the source): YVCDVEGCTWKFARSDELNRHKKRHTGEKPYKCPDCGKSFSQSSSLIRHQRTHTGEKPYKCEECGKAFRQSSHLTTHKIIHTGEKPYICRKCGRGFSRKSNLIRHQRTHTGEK
Chain of F2634 (artificial (human zinc finger domains)) (chain, as listed by the source): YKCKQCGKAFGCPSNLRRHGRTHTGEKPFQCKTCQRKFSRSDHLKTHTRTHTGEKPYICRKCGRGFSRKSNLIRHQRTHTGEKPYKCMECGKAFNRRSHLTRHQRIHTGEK

B1: VEGF-A -395R (dsDNA)
DNA 1: GGGGAGAGGGAC
DNA 2: GTCCCTCTCCCC
**Q.** For B1, which activity [1] is on record?
**A.** 2100

B2: VEGF-A -536 (dsDNA)
DNA 1: GAGCGAGCAGCG
DNA 2: CGCTGCTCGCTC
**Q.** B2 was tested. Which activity [2] did it give?
**A.** 6.1 fold repression

B3: VEGF-A -314R (dsDNA)
DNA 1: GACAGGGCCTGA
DNA 2: TCAGGCCCTGTC
**Q.** With B3 as the binder, how does the activity [3] read?
**A.** 3400

B4: VEGF-A -455 (12 bp) (dsDNA)
DNA 1: GAGCGGGGAGAA
DNA 2: TTCTCCCCGCTC
**Q.** How did the activity [4] turn out when B4 was run?
**A.** 4500

B5: VEGF-A -391R (12 bp) (dsDNA)
DNA 1: GGGTGGGGAGAG
DNA 2: CTCTCCCCACCC
**Q.** With B5 as the binder, how does the activity [5] read?
**A.** 1900

B6: VEGF-A -606 (dsDNA)
DNA 1: GCCAGAGCCGGG
DNA 2: CCCGGCTCTGGC
**Q.** Which activity [6] does the source give for B6 here?
**A.** 2700

B7: VEGF-A -633R (9 bp) (dsDNA)
DNA 1: GGGTGGGGG
DNA 2: CCCCCACCC
**Q.** Which activity [7] does the source give for B7 here?
**A.** 3100

B8: VEGF-A -633R (12 bp) (dsDNA)
DNA 1: GGGTGGGGGGAG
DNA 2: CTCCCCCCACCC
**Q.** How did the activity [8] turn out when B8 was run?
**A.** 2300

B9: VEGF-A -455 (9 bp) (dsDNA)
DNA 1: GAGCGGGGA
DNA 2: TCCCCGCTC
**Q.** How did the activity [9] turn out when B9 was run?
**A.** 4150

B10: VEGF-A +244R (dsDNA)
DNA 1: CAAGTGGGGAAT
DNA 2: ATTCCCCACTTG
**Q.** B10 was tested. Which activity [10] did it give?
**A.** 1500 pg/mL

B11: VEGF-A -358R (dsDNA)
DNA 1: GGGGCAGGGGAA
DNA 2: TTCCCCTGCCCC
**Q.** With B11 as the binder, how does the activity [11] read?
**A.** 4200

B12: VEGF-A -630R (dsDNA)
DNA 1: AGGGGGTGGGGG
DNA 2: CCCCCACCCCCT
**Q.** With B12 as the binder, how does the activity [12] read?
**A.** 2000 pg/mL

B13: VEGF-A +434 (dsDNA)
DNA 1: TGGGGGTGA
DNA 2: TCACCCCCA
**Q.** With B13 as the binder, how does the activity [13] read?
**A.** 1300 pg/mL

**Q.** And the activity [14]?
**A.** 8.7 fold repression

B14: VEGF-A -206 (dsDNA)
DNA 1: GGTGGGGGTCGA
DNA 2: TCGACCCCCACC
**Q.** How did the activity [15] turn out when B14 was run?
**A.** 4400

B15: VEGF-A -677 (dsDNA)
DNA 1: TGGGAGGTCAGA
DNA 2: TCTGACCTCCCA
**Q.** For B15, which activity [16] is on record?
**A.** 3700

B16: VEGF-A -680 (dsDNA)
DNA 1: GTTTGGGAGGTC
DNA 2: GACCTCCCAAAC
**Q.** How did the activity [17] turn out when B16 was run?
**A.** 1000

B17: VEGF-A -671 (dsDNA)
DNA 1: GTCAGAAATAGG
DNA 2: CCTATTTCTGAC
**Q.** With B17 as the binder, how does the activity [18] read?
**A.** 1600 pg/mL

— US20050032186, “Regulatory zinc finger proteins” (published 2005)
